T1: DUE-B (Homo sapiens, UniProt Q8TEA8 SEQ:1-209)
T1 sequence: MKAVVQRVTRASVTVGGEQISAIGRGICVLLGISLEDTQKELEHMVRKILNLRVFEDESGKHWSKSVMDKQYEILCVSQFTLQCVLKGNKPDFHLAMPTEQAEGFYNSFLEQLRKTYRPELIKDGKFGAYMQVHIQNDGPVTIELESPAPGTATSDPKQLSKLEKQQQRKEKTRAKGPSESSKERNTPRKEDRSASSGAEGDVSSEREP

B1: DUE 30-mer probe (dsDNA)
DNA 1: GGAATATACATTATATATTAAATATAGATC
DNA 2: GATCTATATTTAATATATAATGTATATTCC
B2: c-myc DUE/ARS 123 bp probe (dsDNA)
DNA 1: GAAGGAATTCATGAGAAGAATGTTTTTTGTTTTTCATGCCGTGGAATAACACAAAATAAAAAATCCCGAGGGAATATACATTATATATTAAATATAGATCATTTCAGGGAGCTCGAGAAACAA
DNA 2: TTGTTTCTCGAGCTCCCTGAAATGATCTATATTTAATATATAATGTATATTCCCTCGGGATTTTTTATTTTGTGTTATTCCACGGCATGAAAAACAAAAAACATTCTTCTCATGAATTCCTTC

Experiments:
DUE-B [1] = target: T1, DUE-B; test: FP; saturable polarization; 2 nM oligo; 100 mM Tris pH 7.5 (printed mN), 800 mM NaCl, 10 mM EDTA; reversed by poly dI-dC; 16-epiestriol (E2850) stimulates; conditions: tags: N-terminal 6His and V5, baculovirus expressed; label: FITC at 3' end of both strands via C6 spacer
Description: A mastermix is prepared consisting of 1× reaction buffer, 2 nM labeled oligo and 0.125 or 0.250 ug DUE-B per 100 ul of mastermix. Compounds (in this case steroids) are added to the bottom of a 96 well plate. 100 ul of mastermix is added to each well and allowed to equilibrate for 30 sec. Fluorescence polarization is then measured.
In FIG. 23A, the effect of increasing concentrations of DUE-B on the polarization of dsDNA was assessed. As expected, polarization of the dsDNA becomes saturated as the DUE-B protein concentration increases. Note that at 0.125 and 0.250 μg of DUE-B a reasonable shift in polarization of dsDNA is seen. Using these set conditions (0.250 ug DUE-B), the effect of adding a non-specific DNA inhibitor (pdldC) to the reaction (FIG. 23B) was tested. […] It is observed that the polarization was stable for at least 2 hours, making this assay very feasible for high throughput screening.

DUE-B [2] = target: T1, DUE-B; test: EMSA; strongly retarded complex without poly dI-dC; 30 C 30 min; reduced by poly dI-dC; conditions: tags: 6His, baculovirus/Sf9 expressed, Ni-NTA; label: 32P (alpha-32P-dCTP by PCR)
Description: An electrophoretic mobility shift assay (EMSA) was used to test whether the baculovirus expressed DUE-B protein could bind to DNA in vitro. When added to a radiolabeled c-myc DUE probe in the absence of nonspecific competitor (poly dI-dC), DUE-B produced a strongly retarded protein-DNA complex band (FIG. 14, lanes 1-4). […] When HeLa cell cytoplasmic extract was added to the c-myc DUE probe in the absence of poly dI-dC an intense band was observed that was not affected by the addition of DUE-B (lanes 13-16). With the addition of the nonspecific competitor poly dI-dC, however, a novel band appeared that was dependent on the addition of DUE-B (asterisks, lanes 17-24). […] Similar to the results obtained when cytosol was added to the c-myc DUE probe, when nuclear extract from HeLa cells was added to the c-myc DUE probe in the absence of poly dI-dC an intense band was observed that was not affected by the addition of DUE-B (lanes 25-28). In the presence of competitor for nonspecific binding, however, a novel band appeared that was dependent on the addition of DUE-B (brackets, lanes 32 and 36). […] In FIG. 14, a 123 bp fragment of the c-myc replication origin containing the DUE/ARS region was labeled with alpha-³²P-dCTP by PCR. 25 fmol were mixed with recombinant DUE-B purified by Ni-NTA affinity chromatography from SF9 insect cells. […]

| Binder | binding result (DUE-B [1]) | binding result (DUE-B [2]) |
| --- | --- | --- |
| B1 | binds |  |
| B2 |  | binds |

Reference: patent publication US20040219554, “Dna binding protein” (published 2004)
